Reference: the supplement of paper PMC10724198
± gives the standard deviation of the averaged measurements.

System: Saccharomyces cerevisiae
Experiment: protein stability index of tFT-peptide fusion (C-terminal peptide) (PSI (0-1 scale)); higher = more stable (slower turnover)
Settings: temperature: 30 C
Procedure: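 MPS profiling in S. cerevisiae of the yeast C-terminome library: the last 12 aa of each annotated ORF are fused to the C-terminus of a sfGFP-mCherry timer, after a GGGS linker. Cells are FACS-sorted into 8 mCherry/sfGFP bins and deep-sequenced. PSI runs from 0 (unstable) to 1 (stable); wild type and das1Δ backgrounds, two technical replicates each.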

[1] = genetic background: das1 deletion

Sequence	protein stability index [1]	protein stability index (genetic background: wild type)
DIFDPVDFVSFF [OAF3 C-terminal 12 aa]	0.772 ± 0.033	0.752 ± 0.034
DILGFKIAPRSA [YGR210C C-terminal 12 aa]	0.682 ± 0.049	0.7073 ± 0.0013
DILGSLLAKKRK [MRE11 C-terminal 12 aa]	0.681 ± 0.023	0.672 ± 0.022
DILLSCIADLTI [POL2 C-terminal 12 aa]	0.71 ± 0.04	0.707 ± 0.054
DISDSEGGLFEC [PCI8 C-terminal 12 aa]	0.69 ± 0.085	0.694 ± 0.085
DIYNQLHMFGEK [IGD1 C-terminal 12 aa]	0.663 ± 0.0086	0.688 ± 0.01
DKEVVYFDEWTI [RPC34 C-terminal 12 aa]	0.726 ± 0.062	0.729 ± 0.032
DKLAKLLSLDIH [MSH3 C-terminal 12 aa]	0.7167 ± 0.0065	0.708 ± 0.025
DKVPVHYPPVVE [SYM1 C-terminal 12 aa]	0.686 ± 0.028	0.709 ± 0.045
DLAERLAETEIK [RNA1 C-terminal 12 aa]	0.703 ± 0.0088	0.692 ± 0.024
DLASFIKKSLSS [TML25 C-terminal 12 aa]	0.694 ± 0.017	0.734 ± 0.032
DLKIYLQQDESL [YEL023C C-terminal 12 aa]	0.709 ± 0.028	0.672 ± 0.015
DNPETKNGRENK [ECM10 C-terminal 12 aa]	0.675 ± 0.016	0.6426 ± 0.00097
DPNGILNPYKYI [DLD2 C-terminal 12 aa]	0.708 ± 0.024	0.6117 ± 0.003
DQFQLITQGIYS [PIK1 C-terminal 12 aa]	0.722 ± 0.034	0.717 ± 0.099
DQLLALYEDGLL [AHC2 C-terminal 12 aa]	0.7371 ± 0.0043	0.72 ± 0.043
DRVGEVFAKLFG [NNR2 C-terminal 12 aa]	0.7119 ± 0.0012	0.728 ± 0.011
DSERKVLSEALL [KAP114 C-terminal 12 aa]	0.676 ± 0.013	0.6846 ± 0.0027
DSFFFDVLAQLP [YLR434C C-terminal 12 aa]	0.7357 ± 0.0072	0.686 ± 0.012
DTCKSVLYCSTS [YMR193C-A C-terminal 12 aa]	0.694 ± 0.022	0.65 ± 0.0067
DTHTNEIIKKEI [HRQ1 C-terminal 12 aa]	0.6984 ± 0.004	0.695 ± 0.032

Sequence	protein stability index [1]	protein stability index (genetic background: wild type)
DVFEEIGYSMKD [SAE3 C-terminal 12 aa]	0.715 ± 0.0034	0.789 ± 0.041
DVHDDVESDDEI [ALF1 C-terminal 12 aa]	0.6961 ± 0.0065	0.7005 ± 0.0059
DVKPQENGNDSS [REG1 C-terminal 12 aa]	0.71 ± 0.014	0.705 ± 0.037
DWEAIDAQTIKL [FAT1 C-terminal 12 aa]	0.746 ± 0.0075	0.768 ± 0.021
DYKKFIEDVLRQ [MLC1 C-terminal 12 aa]	0.696 ± 0.033	0.702 ± 0.04
EAELEEDWGMYG [YBR062C C-terminal 12 aa]	0.7114 ± 0.0068	0.7097 ± 0.0017
EANNLLNIIKGN [MRP51 C-terminal 12 aa]	0.6795 ± 0.0042	0.294 ± 0.035
EAQLSRSEVLLV [COS2 C-terminal 12 aa]	0.648 ± 0.0028	0.6242 ± 0.0027
EAQLTRKQAPPV [COS9 C-terminal 12 aa]	0.7035 ± 0.004	0.699 ± 0.015
EATYKVLQQLHK [ADE8 C-terminal 12 aa]	0.71 ± 0.012	0.7224 ± 0.00099
EAVYELAKMSLA [MYG1 C-terminal 12 aa]	0.703 ± 0.025	0.6777 ± 0.0052
ECDGITVPEKLT [MSC6 C-terminal 12 aa]	0.682 ± 0.012	0.708 ± 0.011
ECRARKASSNRS [YGR109W-A C-terminal 12 aa]	0.681 ± 0.0073	0.707 ± 0.024
EDAEKRADEMDD [SRM1 C-terminal 12 aa]	0.691 ± 0.034	0.675 ± 0.033
EECYLHSESFGY [FRE7 C-terminal 12 aa]	0.68 ± 0.028	0.664 ± 0.028
EEFINKLVKSMN [RPL7A C-terminal 12 aa]	0.698 ± 0.029	0.705 ± 0.097
EEIVGRHSDSAT [YAP6 C-terminal 12 aa]	0.6926 ± 0.0035	0.69 ± 0.011
EEKKKKKIAESK [TIM50 C-terminal 12 aa]	0.681 ± 0.06	0.64 ± 0.044
EELKKLSNPDMN [CUP9 C-terminal 12 aa]	0.713 ± 0.059	0.686 ± 0.0076
EETEAQAEPVEA [RPS3 C-terminal 12 aa]	0.687 ± 0.013	0.663 ± 0.021
EFEILDAKKEKD [PIM1 C-terminal 12 aa]	0.699 ± 0.0047	0.681 ± 0.056

Sequence	protein stability index [1]	protein stability index (genetic background: wild type)
EFKCMSVITAQQ [SEH1 C-terminal 12 aa]	0.67622 ± 0.00052	0.687 ± 0.025
EFMKTNTGSKKV [CCR4 C-terminal 12 aa]	0.703 ± 0.027	0.677 ± 0.03
EFTDEWFKEHSS [STH1 C-terminal 12 aa]	0.757 ± 0.0035	0.719 ± 0.0073
EGGDLEYQHVKI [YCR043C C-terminal 12 aa]	0.691 ± 0.0077	0.682 ± 0.03
EGIFPANYVRVS [YSC84 C-terminal 12 aa]	0.663 ± 0.01	0.673 ± 0.0097
EGPRGETIVERF [YJL047C-A C-terminal 12 aa]	0.698 ± 0.008	0.6955 ± 0.0027
EGVGCRYPVVLI [YDR467C C-terminal 12 aa]	0.7038 ± 0.0063	0.666 ± 0.019
EHKGSIEAGFTS [CSS2 C-terminal 12 aa]	0.698 ± 0.023	0.715 ± 0.025
EHRNIEWEKKTA [POL4 C-terminal 12 aa]	0.7 ± 0.014	0.694 ± 0.054
EINSDFIENFEE [MSH4 C-terminal 12 aa]	0.701 ± 0.017	0.699 ± 0.046
EKEFTGNSQSEK [NMA111 C-terminal 12 aa]	0.6859 ± 0.006	0.742 ± 0.039
EKKKNPYWYYQW [GEP3 C-terminal 12 aa]	0.735 ± 0.009	0.673 ± 0.025
EKQQRRNMKNAL [RRS1 C-terminal 12 aa]	0.704 ± 0.034	0.703 ± 0.01
EKTRKNISKFFS [CPR7 C-terminal 12 aa]	0.713 ± 0.022	0.707 ± 0.013
EKVIDGSIEHSS [YNR061C C-terminal 12 aa]	0.6642 ± 0.0044	0.703 ± 0.017
EKVRNEGFIKNP [GPM2 C-terminal 12 aa]	0.716 ± 0.03	0.702 ± 0.075
ELANILESDITL [CIN1 C-terminal 12 aa]	0.70881 ± 0.00043	0.712 ± 0.022
ELDEIAASLENL [TPM1 C-terminal 12 aa]	0.7088 ± 0.0027	0.69 ± 0.01
ELLCKGICKAAE [HEL1 C-terminal 12 aa]	0.6857 ± 0.0035	0.674 ± 0.017
EMEKNKLKRKRN [YNG2 C-terminal 12 aa]	0.668 ± 0.054	0.699 ± 0.014
EMVKKHALNGRI [NRS1 C-terminal 12 aa]	0.7115 ± 0.004	0.671 ± 0.025

Sequence	protein stability index [1]	protein stability index (genetic background: wild type)
ENKNWSIITPSG [YBL086C C-terminal 12 aa]	0.68945 ± 7e-05	0.684 ± 0.018
EPMESLRSTTKY [PTR2 C-terminal 12 aa]	0.734 ± 0.022	0.697 ± 0.01
EPNGYIKNLKWT [RXT3 C-terminal 12 aa]	0.713 ± 0.023	0.633 ± 0.034
ERLIQQGYLQKI [PSF1 C-terminal 12 aa]	0.698 ± 0.024	0.683 ± 0.035
ERNGWKFFFKEV [YHR137C-A C-terminal 12 aa]	0.69374 ± 0.00051	0.6597 ± 0.0014
ERNKKSRPPIYK [ARL3 C-terminal 12 aa]	0.734 ± 0.03	0.735 ± 0.09
ETLAKLREQGLM [TOM70 C-terminal 12 aa]	0.6797 ± 0.0058	0.692 ± 0.015
EVHALNRDHLVA [YHR138C C-terminal 12 aa]	0.692 ± 0.0076	0.674 ± 0.023
EVLDQLEPQDSS [MCM6 C-terminal 12 aa]	0.699 ± 0.019	0.6847 ± 0.0064
EYDDDSGNQGVW [GRE1 C-terminal 12 aa]	0.6914 ± 0.00077	0.739 ± 0.049
EYIVNVNEYGHD [YOL153C C-terminal 12 aa]	0.6799 ± 0.0043	0.678 ± 0.0079
EYSKKYLTTFFQ [YEA6 C-terminal 12 aa]	0.706 ± 0.025	0.722 ± 0.03
FAAVSFVLGTGI [NCW1 C-terminal 12 aa]	0.714 ± 0.008	0.709 ± 0.017
FAEYNRLSAIPV [LAM1 C-terminal 12 aa]	0.447 ± 0.015	0.478 ± 0.02
FAGENFHHGDKL [ENO1 C-terminal 12 aa]	0.707 ± 0.016	0.706 ± 0.0078
FCHGAEDAWNIL [EMG1 C-terminal 12 aa]	0.7275 ± 0.0017	0.712 ± 0.012
FCIFNNVVFPML [RRT1 C-terminal 12 aa]	0.717 ± 0.011	0.7002 ± 0.0035
FCMGVAAFVTTA [UTP21 C-terminal 12 aa]	0.493 ± 0.013	0.497 ± 0.0075
FDDDLTAQLYYP [TDA8 C-terminal 12 aa]	0.7291 ± 0.0033	0.744 ± 0.043
